Results: article PMC8262862 (2021)

Columns and labels:
Test in all cases: ELISA
H9 HA = target: H9 HA
H7 HA = target: H7 HA
H13 HA = target: H13 HA
H4 HA = target: H4 HA
H10 HA = target: H10 HA
H8 HA = target: H8 HA
H14 HA = target: H14 HA
H2 HA = target: H2 HA
H1 HA = target: H1 HA
H6 HA = target: H6 HA
H5 HA = target: H5 HA
B-Phuket HA = target: B-Phuket HA
H3 HA = target: H3 HA

B1: S1V2-51 IgG (antibody, V domains shown)
VH: QVQLVESGGGVVQPGRSLRLSCVASGFTFRDSVMHWVRQAPGKGLEWVAVTSFDGGESYSADSVKGRFTISRDNSKSTLSLQMNILRPEDTGVYYCARDRGGLDVWGQGTTVTVSG
VL: DIVMTQSPESLAVSLGERATINCKSSQSVSFGSSDKNYLGWYQQKPGQPPKLLINWASTRESGVSDRFRGTGSGTDFTLTISSLQAEDAAVYYCHQYYTPPYSFGQGTKLEIK
For B1, the Kd (H9 HA) was 0.21 nM, the Kd (H7 HA) was 0.21 nM and the Kd (H13 HA) was > 100 nM. The Kd (H4 HA) was 0.21 nM, the Kd (H10 HA) was 0.42 nM and the Kd (H8 HA) was 0.41 nM. The Kd (H14 HA) was > 100 nM, the Kd (H2 HA) was > 100 nM and the Kd (H1 HA) was > 100 nM. The Kd (H6 HA) was 84 nM, the Kd (H5 HA) was > 100 nM and the Kd (B-Phuket HA) was > 100 nM. The Kd (H3 HA) was 0.26 nM.
